Assays:
[1] = KARI enzyme Ki assay (product inhibition) with NADH, purified enzymes; format: biochemical, Slackia exigua; details: for IC50 / Ki: 1 mM 2-acetolactate, 0-40 mM R-DHIV; for catalytic efficiency using KM apparent = KM*(1+[product]/Ki), compared to Se1_NKR: 1 mM DHIV; for catalytic efficiency (KM apparent) versus increasing concentrations of DHIV (FIG. 14A-B): both conditions (33° C., pH 6.8 and 30° C., pH 7.0)
Description: (§1) In this example, three different KARI Gen6 variant enzymes (v1, v48, and v65) and parent enzyme Se1_NKR_gen 6 were screened for their activity with NADH as cofactor. The enzymes were expressed E. coli, and resulting transformants were cultivated in shake flask fermentations as described below and samples were taken after 44h, centrifuged at 4000×g for 10 mins at 4° C. and the cell pellets were stored at −80° C. until analysis. The pellets were lysed by bead beating and the lysates were analyzed by KARI activity assay as described below using NADH and NADPH as cofactors.
(§2) KARI Enzyme Assay: The assay and no substrate control reactions were performed in triplicate for each sample. For the KM assay, the reaction samples comprised 100 mM potassium phosphate, pH 6.8 or 7, 10 mM MgCl2, 1 mM DTT, 200 μM NADH, 0-10 mM 2-acetolactate, and 0.1 mg/mL of enzyme. For the Ki assay, the reaction samples comprised 100 mM potassium phosphate, pH 6.8 or 7, 10 mM MgCl2, 1 mM DTT, 200 μM NADH, 1 mM 2-acetolactate, 0-40 mM R-DHIV, and 0.1 mg/mL of enzyme. For the no substrate controls, the 2-acetolactate was substituted with water. 10 μL of each lysate were transferred into a 96 well half area assay plate. The reaction was started with 90 μL of reaction buffer to each well using a multichannel pipette. The samples were mixed immediately. The samples were read at 340 nm every 10 seconds for 5 minutes.
(§3) The purified enzymes encoded by Se1_NKR_Gen6 (Se1), Se1_NKR_v1 (v1), Se1_NKR_v48 (v48), and Se1_NKR_v65 (v65) under two conditions: 33° C. at pH 6.8 and 30° C. at pH 7 were characterized.
In order to determine the impact of all three parameters (kcat, KM, and Ki) to more closely determine the impact of the new variants in vivo, the catalytic efficiency for each enzyme using the KM apparent, which is equal to KM*(1+[product]/Ki), was calculated. […] At this DHIV concentration level, in vivo, at 33° C., pH 6.8, m48 would be 157%, Se1_NKR_v1 would be 139%, and Se1_NKR_v65 would be 118% improved compared to Se1_NKR. For example, in vivo, cells expressing Se1_NKR-v48, it would be expected that 16 fewer copies of the enzyme could potentially achieve 36% less protein while achieving 0.35 g/g yeast efficiency.

[2] = Kinetic parameters of Se1_NKR and Se2_NKR for acetolactate, as set in the model; format: biochemical; details: parameter set in the model
Description: (§4) Where nNKR is the number of copies of NKR integrated into the yeast genome, kcatis the first order rate constant, AL is the cytosolic concentration of acetolactate, Km is the Michaelis constant for acetolactate, DHIV is the concentration of DHIV, and KiDHIV is the inhibition constant for DHIV. […] This also assumes that all copies of NKR are expressed equally regardless of promotor or where it is integrated in the genome.

[3] = KARI enzyme KM assay with NADH, purified enzymes; format: biochemical, Slackia exigua; details: for Vmax: 0.1 mg/mL of enzyme
Description: as §1, §2, §3

Isobutanol Production = assay: Simple shake flask fermentation, final relative isobutanol concentration; format: cell-based; details: enzyme on vector; for Isobutanol Concentration relative to Se1_NKR control (WT): final concentration
Description: This improvement in isobutanol production is expected to increase with multiple copies of the Se1_NKR_v1 variant enzyme incorporated into the host cell genome.

[4] = DHIV inhibition constant of Se1_NKR and Se2_NKR, as set in the model; format: biochemical; details: parameter set in the model; read-out: KiDHIV
Description: as §4

[5] = tested on: isobutanol producing yeast strains; assay: Genome scale metabolic modeling (iMM904) of isobutanol yield, batch simulation; set-up: species or system S. cerevisiae; details: cells with 16 fewer copies of the enzyme, 36% less protein
Description: The iMM904 metabolic reconstruction of S. cerevisiae metabolism served as the basis of the model. The model consists of a matrix of stoichiometric coefficients that represent metabolic and transport reactions encoded by 904 genes. Reactions were added as new columns to the matrix while new rows were added for additional metabolites. The native pathway for making isobutanol in the yeast mitochondria was turned off. A summary of these changes is found in Table 2 below. With these changes made, the maximum isobutanol yield from glucose in the model was approximately 0.38 g/g. If the model was altered to not produce glycerol, the yield increased to 0.41 g/g.
With more reactions than metabolites, metabolic networks have a near infinite number of solutions for any given condition. In flux balance analysis, the flux distribution is obtained by finding the solution that maximizes an objective function. […] Each flux is bounded by known limits of each reaction, though the bounds are mostly set by thermodynamic reversibility. […]
While all other reactions in the isobutanol pathway were set by reversibility only, the upper bound of flux through NKR (vnkr) was set by the kinetics of Se1 and Se2 NKR. Flux was calculated by the following equation: […]
The benefits of improving either NKR enzyme in a strain with an equal number of both was calculated to predict which enzyme was best to engineer. […]

[6] = generally, under the two conditions

B1: Se1_NKR: NADH-dependent ketol-acid reductoisomerase from Slackia exigua (S. exigua KARI, SEQ ID NO: 2); parent enzyme of the variants (protein, listed as Slackia exigua)
chain: MSVKTKEKEMAVTILYEQDVDPKVIQGLKVGIIGYGSQGHAHALNLMDSGVDVRVGLREGSSSWKTAEEAGLKVTDMDTAAEEADVIMVLVPDEIQPKVYQEHIAAHLKAGNTLAFAHGFNIHYGYIVPPEDVNVIMCAPKGPGHIVRRQFTEGSGVPDLACVQQDATGNAWDIVLSYCWGVGGARSGIIKATFAEETEEDLFGEQAVLCGGLVELVKAGFETLTEAGYPPELAYFECYHEMKMIVDLMYESGIHFMNYSISNTAEYGEYYAGPKVINEQSREAMKEILKRIQDGSFAQEFVDDCNNGHKRLLEQREAINTHPIETTGAQIRSMFSWIKKED
With B1 the IC50 ([1]; 30° C., pH 7) was 1810 µM, the Ki ([1]; 30° C., pH 7) was 752 µM and the IC50 ([1]; 33° C., pH 6.8) was 2600 µM. For the same molecule, the Ki ([1]; 33° C., pH 6.8) was 768 µM, the Kcat [2] was 2.6 s⁻¹ and the Km [2] was 430 µM. It also gave a Kcat ([3]; 30° C., pH 7) of 442 s⁻¹, a Km ([3]; 30° C., pH 7) of 711 µM and a Vmax ([3]; 30° C., pH 7) of 1.30 mM/s. The Kcat ([3]; 33° C., pH 6.8) was 382 s⁻¹, the Km ([3]; 33° C., pH 6.8) was 419 µM and the Vmax ([3]; 33° C., pH 6.8) was 1.12 mM/s. The “Isobutanol Concentration relative to Se1_NKR control (WT)” value (Isobutanol Production) was 100% and the Ki [4] was 1100 µM.

B2: V1: Se1_NKR Gen6 variant with mutations M77I, V91I, K290A, Q330N as printed in Table 5; e.g. SEQ ID NO: 90 (protein, listed as Slackia exigua)
chain: MSVKTKEKEMAVTILYEQDVDPKVIQGLKVGIIGYGSQGHAHALNLMDSGVDVRVGLREGDSDWKTAEEAGLKVTDIDTAAEEADVIMVLIPDEVQPKVYQEHIAAHLKAGNTLAFAHGFNIHYGYIVPPEDVNVIMCAPKGPGHIVRRQFTEGSGVPDLACVQQDATGNAWDIVLSYCWGVGGARSGIIKATFAEETEEDLFGEQAVLCGGLVELVKAGFETLTEAGYPPELAYFECYHEMKMIVDLMYESGIHFMNYSISNTAEYGEYYAGPKVINEQSREAMKEILARIQDGSFAQEFVDDCNNGHKRLLEQREAINTHPIETTGARIRSMFSWIKKEDLEHHHHHH
modifications: SITE 1..350 Se1_NKR_v1 protein
In the case of B2, the “catalytic efficiency using KM apparent = KM*(1+[product]/Ki), compared to Se1_NKR” value (“catalytic efficiency … compared to Se1_NKR” for short) ([1]; 33° C., pH 6.8) is reported as 139%, the IC50 ([1]; 30° C., pH 7) is reported as 2300 µM and the Ki ([1]; 30° C., pH 7) is reported as 832 µM. For the same molecule, the IC50 ([1]; 33° C., pH 6.8) was 2880 µM, the Ki ([1]; 33° C., pH 6.8) was 834 µM and the “catalytic efficiency (KM apparent) versus increasing concentrations of DHIV (FIG. 14A-B)” value [1] was “decreasing catalytic efficiencies”. For the same molecule, the Kcat ([3]; 30° C., pH 7) was 555 s⁻¹, the Km ([3]; 30° C., pH 7) was 566 µM and the Vmax ([3]; 30° C., pH 7) was 1.63 mM/s. The Kcat ([3]; 33° C., pH 6.8) was 491 s⁻¹, the Km ([3]; 33° C., pH 6.8) was 407 µM and the Vmax ([3]; 33° C., pH 6.8) was 1.45 mM/s. For the same molecule, the “KM for acetolactate, comparison of the variants” value [3, 6] was “best (lowest)”, the “isobutanol concentration compared with the WT enzyme, in words” value (Isobutanol Production) was “significantly more isobutanol than the WT enzyme” and the “Isobutanol Concentration relative to Se1_NKR control (WT)” value (Isobutanol Production) was 105%.

B3: V65: Se1_NKR Gen6 variant with mutations G31A, V91I, Q330N as printed in Table 5; e.g. SEQ ID NO: 94 (protein, listed as Slackia exigua)
chain: MSVKTKEKEMAVTILYEQDVDPKVIQGLKVAIIGYGSQGHAHALNLMDSGVDVRVGLREGDSDWKTAEEAGLKVTDMDTAAEEADVIMVLIPDEVQPKVYQEHIAAHLKAGNTLAFAHGFNIHYGYIVPPEDVNVIMCAPKGPGHIVRRQFTEGSGVPDLACVQQDATGNAWDIVLSYCWGVGGARSGIIKATFAEETEEDLFGEQAVLCGGLVELVKAGFETLTEAGYPPELAYFECYHEMKMIVDLMYESGIHFMNYSISNTAEYGEYYAGPKVINEQSREAMKEILKRIQDGSFAQEFVDDCNNGHKRLLEQREAINTHPIETTGARIRSMFSWIKKEDLEHHHHHH
modifications: SITE 1..350 Se1_NKR_v65 protein
For B3, the “catalytic efficiency … compared to Se1_NKR” value ([1]; 33° C., pH 6.8) was 118%, the IC50 ([1]; 30° C., pH 7) was 2040 µM and the Ki ([1]; 30° C., pH 7) was 821 µM. The IC50 ([1]; 33° C., pH 6.8) was 2370 µM, the Ki ([1]; 33° C., pH 6.8) was 801 µM and the “catalytic efficiency (KM apparent) versus increasing concentrations of DHIV (FIG. 14A-B)” value [1] was “decreasing catalytic efficiencies”. It also gave a Kcat ([3]; 30° C., pH 7) of 602 s⁻¹, a Km ([3]; 30° C., pH 7) of 673 µM and a Vmax ([3]; 30° C., pH 7) of 1.77 mM/s. For the same molecule, the Kcat ([3]; 33° C., pH 6.8) was 538 s⁻¹, the Km ([3]; 33° C., pH 6.8) was 510 µM and the Vmax ([3]; 33° C., pH 6.8) was 1.58 mM/s. For the same molecule, the “Isobutanol Concentration relative to Se1_NKR control (WT)” value (Isobutanol Production) was 103%.

B4: V48: Se1_NKR Gen6 variant with mutations G31A, M77I, Q330N as printed in Table 5; e.g. SEQ ID NO: 92 (protein, listed as Slackia exigua)
chain: MSVKTKEKEMAVTILYEQDVDPKVIQGLKVAIIGYGSQGHAHALNLMDSGVDVRVGLREGDSDWKTAEEAGLKVTDIDTAAEEADVIMVLVPDEVQPKVYQEHIAAHLKAGNTLAFAHGFNIHYGYIVPPEDVNVIMCAPKGPGHIVRRQFTEGSGVPDLACVQQDATGNAWDIVLSYCWGVGGARSGIIKATFAEETEEDLFGEQAVLCGGLVELVKAGFETLTEAGYPPELAYFECYHEMKMIVDLMYESGIHFMNYSISNTAEYGEYYAGPKVINEQSREAMKEILKRIQDGSFAQEFVDDCNNGHKRLLEQREAINTHPIETTGARIRSMFSWIKKEDLEHHHHHH
modifications: SITE 1..350 Se1_NKR_v48 protein
With B4 the “catalytic efficiency … compared to Se1_NKR” value ([1]; 33° C., pH 6.8) was 157%, the IC50 ([1]; 30° C., pH 7) was 2450 µM and the Ki ([1]; 30° C., pH 7) was 996 µM. The IC50 ([1]; 33° C., pH 6.8) was 3030 µM, the Ki ([1]; 33° C., pH 6.8) was 1050 µM and the “catalytic efficiency (KM apparent) versus increasing concentrations of DHIV (FIG. 14A-B)” value [1] was “highest catalytic efficiencies”. The “Ki for DHIV, comparison of the variants” value [1, 6] was “best (highest)”, the Kcat ([3]; 30° C., pH 7) was 717 s⁻¹ and the Km ([3]; 30° C., pH 7) was 683 µM. It also gave a Vmax ([3]; 30° C., pH 7) of 2.11 mM/s, a Kcat ([3]; 33° C., pH 6.8) of 647 s⁻¹ and a Km ([3]; 33° C., pH 6.8) of 533 µM. The Vmax ([3]; 33° C., pH 6.8) was 1.90 mM/s, the “rate (kcat or VMAX), comparison of the variants” value [3, 6] was “best (highest)” and the “Isobutanol Concentration relative to Se1_NKR control (WT)” value (Isobutanol Production) was 104%. The “expected yield (printed: yeast efficiency)” value [5] was 0.35 g/g.
